A short description of this data set: self-splicing fitness, log relative to wild type (ln ratio); higher = more splicing; Tetrahymena group I intron in knt gene, E. coli kanamycin selection, DiMSum; sequences stand for … in CUCUCU…GGAGGGAAAAGUUAUCAGGCAUGCACCUGGUAGCUAGUCUUUAAACCAAUAGAUUGCAUCGGUUUAAAAGGCAAGACCGUCAAAUUGCGGGAAAGGGGUCAACAGCCGUUCAGUACCAAGUCUCAGGGGAAACUUUGAGAUGGCCUUGCAAAGGGUAUGGUAAUAAGCUGACGGACAUGGUCCUAACCACGCAGCCAAGUCCUAAGUCAACAGAUCUUCUGUUGAUAUGGAUGCAGUUCACAGACUAAAUGUCGGUCGGGGAAGAUGUAUUCUUCUCAUAAGAUAUAGUCGGACCUCUCCUUAAUGGGAGCUAGCGGAUGAAGUGAUGCAACACUGGAGCCGCUGGGAACUAAUUUGUAUGCGAAAGUAUAUUGAUUAGUUUUGGAGUACUCGUGGUCG
The gist of the method:
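DiMSum derived fitness as the error-weighted combination of fold changes across replicates, kanamycin versus no kanamycin, normalised to wild type. E. coli BL21(DE3) held the library, which randomised all eight P1ex-region intron nucleotides within the knt kanamycin-resistance gene on pET-22b(+). Six replicate transformations grew overnight at 37°C or 30°C on LB agar with or without 25 μg/mL kanamycin, also containing 100 μg/mL carbenicillin, 50 μM IPTG and 0.2% rhamnose, and pooled colonies were amplicon-sequenced on an Illumina HiSeq 2500.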

± gives the uncertainty stated by the source.

With UUUCAGCAAUAUUACGUUAU, the “self-splicing fitness (ln)” value reads like this: (30 °C) -2.94 ± 0.2; (37 °C) -1.47 ± 0.14. The matching figures for GCUUAGCAAUAUUACGCCGA: -2.42 ± 0.23 and -1.87 ± 0.27. The matching figures for UCCAAGCAAUAUUACGGAGU: -2.17 ± 0.12 and -1.44 ± 0.13.

As to CCCAAGCAAUAUUACGCUCA, the “self-splicing fitness (ln)” value was -3.73 ± 0.27 (30 °C) and -3.23 ± 0.25 (37 °C).

As to UCAUAGCAAUAUUACGCCGC, the “self-splicing fitness (ln)” value runs as follows: (30 °C) -3.77 ± 0.33; (37 °C) -1.61 ± 0.41.

CUACAGCAAUAUUACGUGAU: the “self-splicing fitness (ln)” value is, setting by setting: (30 °C) -2.01 ± 0.063; (37 °C) -1.18 ± 0.085. With GAAUAGCAAUAUUACGGGUA, the “self-splicing fitness (ln)” value is -2.2 ± 0.19 (30 °C) and -1.2 ± 0.14 (37 °C). Consider CCGGAGCAAUAUUACGUUAG, for which the “self-splicing fitness (ln)” value reads like this: (30 °C) -1.47 ± 0.078; (37 °C) -0.769 ± 0.11. As to CUGUAGCAAUAUUACGUACC, under “37 °C”, the “self-splicing fitness (ln)” value is -0.725 ± 0.38. As for CCGUAGCAAUAUUACGUUUG, the “self-splicing fitness (ln)” value is -1 ± 0.081 (30 °C) and -0.134 ± 0.096 (37 °C).

Consider AGAUAGCAAUAUUACGGUGG, for which the “self-splicing fitness (ln)” value runs as follows: (30 °C) -1.66 ± 0.12; (37 °C) -2.23 ± 0.16. On the same counts, the results for GCCUAGCAAUAUUACGAAAA are -3.05 ± 0.33 and -1.04 ± 0.26. The matching figures for UACAAGCAAUAUUACGGUUA: -0.0426 ± 0.052 and -0.221 ± 0.063.

For GAUGAGCAAUAUUACGACUG, the “self-splicing fitness (ln)” value (30 °C) is -3.11 ± 0.44. UUCGAGCAAUAUUACGAUGG: the “self-splicing fitness (ln)” value was -3.47 ± 0.26 (30 °C) and -1.45 ± 0.33 (37 °C).

As for AUAUAGCAAUAUUACGUUAC, the “self-splicing fitness (ln)” value runs as follows: (30 °C) -3.05 ± 0.29; (37 °C) -2.33 ± 0.24. With GUAUAGCAAUAUUACGGAUA, the “self-splicing fitness (ln)” value by setting is: (30 °C) -1.43 ± 0.27; (37 °C) -1.55 ± 0.28. Turning to UCUUAGCAAUAUUACGGCUG, the “self-splicing fitness (ln)” value reads like this: (30 °C) -2.71 ± 0.28; (37 °C) 0.118 ± 0.24. On the same counts, the results for CAUGAGCAAUAUUACGCUCG are -2.72 ± 0.17 and -2.68 ± 0.4. On the same counts, the results for GGCGAGCAAUAUUACGCCUU are -3.21 ± 0.3 and -1.81 ± 0.26. On the same counts, the results for AACUAGCAAUAUUACGGGAU are -1.53 ± 0.079 and -0.855 ± 0.081. As for GUAAAGCAAUAUUACGUGUA, the “self-splicing fitness (ln)” value by setting is: (30 °C) -1.44 ± 0.064; (37 °C) -0.702 ± 0.087. Turning to ACAUAGCAAUAUUACGUGCA, the “self-splicing fitness (ln)” value runs as follows: (30 °C) -0.639 ± 0.053; (37 °C) 0.349 ± 0.063.

AUGGAGCAAUAUUACGUGCA: the “self-splicing fitness (ln)” value is -2.82 ± 0.21 (30 °C) and -1.65 ± 0.16 (37 °C).

For AAUGAGCAAUAUUACGACCC, the “self-splicing fitness (ln)” value reads like this: (30 °C) -3.25 ± 0.32; (37 °C) 0.0637 ± 0.21. For ACGUAGCAAUAUUACGAGCC, the “self-splicing fitness (ln)” value is -3.28 ± 0.35 (30 °C) and -2.55 ± 0.44 (37 °C). The matching figures for AUGGAGCAAUAUUACGACGU: -0.474 ± 0.09 and -0.306 ± 0.099. The matching figures for UCCCAGCAAUAUUACGUCGA: -0.251 ± 0.071 and 0.317 ± 0.099.

CUCCAGCAAUAUUACGAAAG: the “self-splicing fitness (ln)” value (30 °C) is -0.942 ± 0.11 and the “self-splicing fitness (ln)” value (37 °C) is -1.41 ± 0.14.

With UAAAAGCAAUAUUACGCUGA, the “self-splicing fitness (ln)” value runs as follows: (30 °C) -2.35 ± 0.2; (37 °C) -0.613 ± 0.14. The matching figures for UGUAAGCAAUAUUACGCAGU: -2.92 ± 0.22 and -2.22 ± 0.24. The matching figures for UUUCAGCAAUAUUACGCGCG: -0.107 ± 0.18 and -1.01 ± 0.22. AUUUAGCAAUAUUACGGUAG: the “self-splicing fitness (ln)” value by setting is: (30 °C) -3.72 ± 0.27; (37 °C) -2.03 ± 0.21. On to GUAGAGCAAUAUUACGUCGU, for which the “self-splicing fitness (ln)” value by setting is: (30 °C) -0.814 ± 0.084; (37 °C) -0.0553 ± 0.11. Take UGUGAGCAAUAUUACGUGGC: the “self-splicing fitness (ln)” value (37 °C) was -1.97 ± 0.4. In the case of CCUUAGCAAUAUUACGUUAC, the “self-splicing fitness (ln)” value (30 °C) was -3.65 ± 0.35 and the “self-splicing fitness (ln)” value (37 °C) is -2.91 ± 0.29. On the same counts, the results for GGGCAGCAAUAUUACGUUAC are -1.84 ± 0.16 and -0.903 ± 0.23. With CAGCAGCAAUAUUACGCGUU, the “self-splicing fitness (ln)” value is -3.04 ± 0.14 (30 °C) and -2.45 ± 0.17 (37 °C). Regarding UUACAGCAAUAUUACGUUGG, the “self-splicing fitness (ln)” value reads like this: (30 °C) -2.6 ± 0.12; (37 °C) -1.69 ± 0.13.

For AGUAAGCAAUAUUACGUCCC, the “self-splicing fitness (ln)” value is -0.303 ± 0.15 (30 °C) and 0.019 ± 0.18 (37 °C). The matching figures for UGCUAGCAAUAUUACGUUUU: -3.29 ± 0.18 and -1.94 ± 0.14. In the case of GACCAGCAAUAUUACGAACC, the “self-splicing fitness (ln)” value is, setting by setting: (30 °C) -0.191 ± 0.09; (37 °C) 0.0652 ± 0.092. The matching figures for UAAUAGCAAUAUUACGUACU: -1.91 ± 0.094 and -0.805 ± 0.088. Regarding CUAGAGCAAUAUUACGGAUU, the “self-splicing fitness (ln)” value (37 °C) was -3.03 ± 0.43.

Consider UGCAAGCAAUAUUACGGGUA, for which the “self-splicing fitness (ln)” value was -0.497 ± 0.084 (30 °C) and 0.0384 ± 0.095 (37 °C). On to UAUAAGCAAUAUUACGAGCU, for which the “self-splicing fitness (ln)” value runs as follows: (30 °C) -3.44 ± 0.34; (37 °C) -1.47 ± 0.21.

For the sequence CCUGAGCAAUAUUACGAACG, the “self-splicing fitness (ln)” value was -2.81 ± 0.26 (30 °C) and -1.48 ± 0.27 (37 °C). Take CUCCAGCAAUAUUACGUCUC: the “self-splicing fitness (ln)” value is -2.97 ± 0.17 (30 °C) and -3.71 ± 0.33 (37 °C). The matching figures for UCAAAGCAAUAUUACGGCGC: -1.8 ± 0.1 and -1.41 ± 0.13. In the case of UGGGAGCAAUAUUACGAUCC, the “self-splicing fitness (ln)” value (30 °C) is -1.41 ± 0.39.

UUGAAGCAAUAUUACGGAUU: the “self-splicing fitness (ln)” value reads like this: (30 °C) -1.18 ± 0.081; (37 °C) -0.94 ± 0.12. The matching figures for AAUUAGCAAUAUUACGCUUC: -2.91 ± 0.39 and -3.71 ± 0.39. The matching figures for ACGAAGCAAUAUUACGCAUC: -3.54 ± 0.18 and -3.42 ± 0.3. The matching figures for AUCUAGCAAUAUUACGAUUG: -3.1 ± 0.28 and -2.79 ± 0.34.

AGUCAGCAAUAUUACGAACC: the “self-splicing fitness (ln)” value was -0.519 ± 0.15 (30 °C) and -0.0581 ± 0.16 (37 °C).

Regarding CUAUAGCAAUAUUACGUCGC, for the setting “30 °C”, the “self-splicing fitness (ln)” value is -3.75 ± 0.24. Regarding CUCAAGCAAUAUUACGGGUA, the “self-splicing fitness (ln)” value was -2.42 ± 0.14 (30 °C) and -1.01 ± 0.1 (37 °C). On the same counts, the results for GCCGAGCAAUAUUACGGAAA are -0.987 ± 0.1 and -0.953 ± 0.1.

As for AUUGAGCAAUAUUACGAUGA, the “self-splicing fitness (ln)” value (37 °C) is -2.08 ± 0.35. GACCAGCAAUAUUACGAACG: the “self-splicing fitness (ln)” value is, setting by setting: (30 °C) -0.447 ± 0.075; (37 °C) -0.466 ± 0.11.

As to AAGUAGCAAUAUUACGAGAU, the “self-splicing fitness (ln)” value reads like this: (30 °C) -2.66 ± 0.16; (37 °C) -1.34 ± 0.15. Take CGGCAGCAAUAUUACGUCGG: the “self-splicing fitness (ln)” value reads like this: (30 °C) -1.42 ± 0.079; (37 °C) -0.417 ± 0.098. On the same counts, the results for GAGGAGCAAUAUUACGAUUC are -3.4 ± 0.27 and -1.65 ± 0.22. Regarding GCGAAGCAAUAUUACGCGCA, the “self-splicing fitness (ln)” value reads like this: (30 °C) -1.75 ± 0.36; (37 °C) -1.11 ± 0.22. On the same counts, the results for GCAAAGCAAUAUUACGAACU are -0.569 ± 0.094 and -0.26 ± 0.13. On the same counts, the results for UGUUAGCAAUAUUACGAACG are -0.101 ± 0.092 and -0.499 ± 0.11.

Turning to GUUUAGCAAUAUUACGAAGU, the “self-splicing fitness (ln)” value runs as follows: (30 °C) -2.65 ± 0.16; (37 °C) -2.03 ± 0.38.

With UUUAAGCAAUAUUACGUCUC, the “self-splicing fitness (ln)” value by setting is: (30 °C) -1.11 ± 0.29; (37 °C) -1.83 ± 0.39. The matching figures for UCCAAGCAAUAUUACGGACC: -2.63 ± 0.36 and -0.119 ± 0.18. The matching figures for UAGGAGCAAUAUUACGGGAC: -3.63 ± 0.4 and -2.85 ± 0.47. The matching figures for AGAUAGCAAUAUUACGAAAG: -2.68 ± 0.2 and -1.23 ± 0.21. With CGGUAGCAAUAUUACGUUGC, the “self-splicing fitness (ln)” value by setting is: (30 °C) -2.1 ± 0.14; (37 °C) -2.85 ± 0.33. On the same counts, the results for ACUCAGCAAUAUUACGCUCA are -0.566 ± 0.096 and 0.105 ± 0.14. For CUGUAGCAAUAUUACGCACG, the “self-splicing fitness (ln)” value (30 °C) is -0.568 ± 0.12 and the “self-splicing fitness (ln)” value (37 °C) is -0.0751 ± 0.12.

Consider UCUGAGCAAUAUUACGGGAC, for which the “self-splicing fitness (ln)” value by setting is: (30 °C) -2.86 ± 0.4; (37 °C) -2.37 ± 0.23.

With UCAUAGCAAUAUUACGAUAC, the “self-splicing fitness (ln)” value (30 °C) was -3.23 ± 0.38. As to AAUAAGCAAUAUUACGGGAA, the “self-splicing fitness (ln)” value is -2.54 ± 0.28 (30 °C) and -0.437 ± 0.2 (37 °C).

For the origin of these results see the supplement of paper PMC7877785.
